Literature values in PMC6983177.

How the values were obtained:
pCDC25c (Homo sapiens) = pCDC25c (Homo sapiens) (UniProt P30307)
[1] = biological target: RNA polymerase II CTD phosphopeptide (Homo sapiens) (UniProt P24928); experiment: isothermal titration calorimetry

Chain of UniProt P30307 (P30307 2-473): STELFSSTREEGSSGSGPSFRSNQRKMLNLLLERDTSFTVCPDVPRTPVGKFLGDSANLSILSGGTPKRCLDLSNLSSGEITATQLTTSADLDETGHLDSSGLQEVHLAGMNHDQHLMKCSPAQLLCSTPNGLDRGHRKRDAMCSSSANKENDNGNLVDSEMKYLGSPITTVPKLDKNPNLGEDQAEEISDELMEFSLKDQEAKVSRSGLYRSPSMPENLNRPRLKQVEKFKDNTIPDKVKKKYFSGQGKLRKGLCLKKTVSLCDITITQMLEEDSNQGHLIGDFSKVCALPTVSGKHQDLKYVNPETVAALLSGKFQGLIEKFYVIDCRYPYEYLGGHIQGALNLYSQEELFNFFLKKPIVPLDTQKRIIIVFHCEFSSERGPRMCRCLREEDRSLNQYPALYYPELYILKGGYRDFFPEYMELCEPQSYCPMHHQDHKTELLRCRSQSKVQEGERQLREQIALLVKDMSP

Pin1 WW (from UniProt Q13526)
Kd (pCDC25c (Homo sapiens)): 8 µM | Kd [1]: 35 µM
